Laboratory results as given in patent US20040086503A1.

B1: anti-IGF-IR antibody 2.12.1 (antibody, V domains shown)
VH: QAQLVESGGGLVKPGGSLRLSCAASGFTFSDYYMSWIRQAPGKGLEWVSYISSSGSTRDYADSVKGRFTISRDNAKNSLYLQMNSLRAEDTAVYYCVRDGVETTFYYYYYGMDVWGQGTTVTVSS
VL: DIQMTQSPSSLSASVGDRVTFTCRASQDIRRDLGWYQQKPGKAPKRLIYAASRLQSGVPSRFSGSGSGTEFTLTISSLQPEDFATYYCLQHNNYPRTFGQGTEVEIIR
B2: anti-IGF-IR antibody 2.13.2 (antibody, V domains shown)
VH: EVQLLESGGGLVQPGGSLRLSCTASGFTFSSYAMNWVRQAPGKGLEWVSAISGSGGTTFYADSVKGRFTISRDNSRTTLYLQMNSLRAEDTAVYYCAKDLGWSDSYYYYYGMDVWGQGTTVTVSS
VL: DIQMTQFPSSLSASVGDRVTITCRASQGIRNDLGWYQQKPGKAPKRLIYAASRLHRGVPSRFSGSGSGTEFTLTISSLQPEDFATYYCLQHNSYPCSFGQGTKLEIKR
B3: anti-IGF-IR antibody 2.14.3 (antibody, human IgG2, V domains shown)
VH: GPGLVKPSETLSLTCTVSGGSISNYYWSWIRQPAGKGLEWIGRIYTSGSPNYNPSLKSRVTMSVDTSKNQFSLKLNSVTAADTAVYYCAVTIFGVVIIFDYWGQGTLVTVSS
VL: SSLSASVGDRVTFTCRASQDIRRDLGWYQQKPGKAPKRLIYAASRLQSGVPSRFSGSGSGTEFTLTISSLQPEDFATYYCLQHNNYPRTFGQGTEVEIIR
B4: anti-IGF-IR antibody 4.17.3 (antibody, human IgG2, V domains shown)
VH: PGLVKPSETLSLTCTVSGGSISSYYWSWIRQPPGKGLEWIGYIYYSGSTNYNPSLKSRVTISVDTSKNQFSLKLSSVTAADTAVYYCARTYSSSFYYYGMDVWGQGTTVTVSS
VL: GDRVTITCRASQSISTFLNWYQQKPGKAPKLLIHVASSLQGGVPSRFSGSGSGTDFTLTISSLQPEDFATYYCQQSYNAPLTFGGGTKVEIK

Columns and labels:
[1] = target: extracellular domain of IGF-IR (human) (UniProt P08069); experiment: SPR (BIAcore 3000), Protocol 1: antibody captured on protein A, IGF-IR ECD injected
[2] = target: extracellular domain of IGF-IR (human) (UniProt P08069); experiment: SPR (BIAcore 3000), Protocol 2, essentially as Fagerstam et al.

Binder	Kd [1] [nM]	Kd [2] [nM]
B1	7.37	–
B2	3.5	1.53
B3	0.641	–
B4	13	–
